The values below come from the domain aggregation screens of Martell et al. (2025).

This series can be described thus: soluble fraction after stress (log2 fold change); higher = more stays soluble; pooled small domains, quantitative proteomics. The conditions noted are these: stress: pH 4. In short, it runs like this: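 Aggregation propensity is read out as the fold change in how much of each domain remains soluble after acid stress. The custom small-domain libraries were pooled, held at pH 4 and analysed with high-throughput quantitative proteomics. On the log2 scale used, higher values mean more of the domain stayed soluble.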
In the case of “HMYKDVVVPNTVGDSEEKAYQTLSALGLVVNITYDEDASKSDRVVTSQNPTNKTIKEGESVNIVVNKQP”, the “soluble fraction (log2)” value was -0.242. Consider “HMYKIDFAEGDRVIIKGGAFSGLRATVVSLHPEKGMAKIKVYMFGDRETLVDIEVSQLEKDK”, for which the “soluble fraction (log2)” value was 0.113. “HMYKTKVDIAYDMLMERITEGVYKPGEKLVITHISKELGISDIPVREAIRRLESEGYVKILPNQGAIVYD”: the “soluble fraction (log2)” value is -0.185.

With “HMYLGRKATLLSSISGEKMGNAEVLADGNLMSIYVKSLTGEPLSYGSTVLIIKHSEDQNFYLVQN”, the “soluble fraction (log2)” value was -0.65. Take “HMYLQKGISNGKVYLSIVHGYRDPVTKKVRRKTIRSLGYLEDLEKQYADPIKHFEAVVAKMNEEEALE”: the “soluble fraction (log2)” value turned out to be 0.0302. Next, “HMYLSNPTYRGDSLVDALTQIGVDASFASRRDLARKNGIENYTGSAKQNLELLQLLREGRLR”: -0.173. The figure for “HMYLYADIYKKLEEKIKNMEVGEKLPSERAMVQEYGVSRNVLREALVLLSERGLIEIRPGKGSYVTNQQ” is -0.177. The figure for “HMYNKKAYVNTNSDFLNVRSEASTESSVVDKLARGTEVNIVGNIQNGFYPIVLNEKNAWVSSDWISFEKPT” is ≥ 0.43; for “HMYNNDEIEKIQTMYNAIYQLNDIEKALIMLFLEDKSYKEIAEIMGISEGNARIKMMRTKDKLKNLISKN” it is -0.608; for “HMYNNGYVNSDRVNFRKGASTNSDIYKVLDKNTSVTILDYEGDWSKVKINDTVGYVYTKYITAG” it is -0.0882. As to “HMYNTDAMGVRIGELRRAKGLTQEAFAKTLGISAQAVSKWETGLGFPDISLLPMIAETLGTKIETLFGAE”, the “soluble fraction (log2)” value was -0.272.

As to “HMYPATGTVVTAGGHLNMRSEPDRSGAILARIPNGTALTLTGKNGDWYAATYAGRSGYVSAQYISLS”, the “soluble fraction (log2)” value was -0.13.

As for “HMYPDNSGDIQQLAQNIFRQENVSVDRDGLALISSRLGSDHAATRSEIEKLALLAGPGGTLTFETISEVLG”, the “soluble fraction (log2)” value was -0.942. Next, “HMYPEDMMSLMRRALRLINHLESNRKDRHNSRQLELTESKIRRLARYYKGRGLIETEWAYKRDQLRLLV”: -0.184.

As for “HMYPIYDYISNMYLGKHLNAGMSLEEARGIMDEMLEKLLFDVPEEYHIDRDHFYEYLKKYYTERFSA”, the “soluble fraction (log2)” value is -1.7. For “HMYPQLIGFKVIDEDKGEVGVVKEVSESMHQILLTVMKGKKEILIPLAEEFITKVNRHKKELFMVLPDG”, the “soluble fraction (log2)” value was -0.383. Consider “HMYRLDVEISDEIKRDIDEETLSEIKGIIAEDPRPSYQNDETRIYRFTFAGREISFRVKDRTATVTEIL”, for which the “soluble fraction (log2)” value is -0.736. Next, “HMYRPLYQQVYDFLVKQIAAGEWGPGESLPSEQALAGRLNVSQGTVRKALDALAADSLIDRRQGKGTYVAE”: 0.32. The figure for “HMYRPQQEFTMRDLFQNNLNGSESASVRRDALGAELGIGYGNAKRFLERLNHYGVSREEFTAALEKLESE” is -0.205; for “HMYRSGGYTGAGKDDEEAGVVHRNEFVNTADAVRNPHVKRFLDVFNVAQKDGTIRMLNTSQILERARLDA” it is 0.0596. Next, “HMYRYGETPMVVVPDLIGRTVSDIYEEMNADFRLEKFGNGNTVISQAPKPGERVEQGSVIRVYLSGQDQ”: -0.206; “HMYSDERLQTFMELLPFFVEELSNKHVTRYNVWQNYREAYPNGYGRSQFFFHLGQNLEAKKK”: -0.0353. Turning to “HMYSIKEFSFEVTTPGQRLDLFLSEELIGQTRSSIQNLILKKYVTVNGQVSKASYKVKTGEFISVKIPV”, the “soluble fraction (log2)” value is 0.22. As for “HMYSINKTEFGERIKSAREELKMTQTQLAQLLKTSQTTVAKYEHGEQIPRADVLATISKATGKSTDWLLFG”, the “soluble fraction (log2)” value was 0.11. Next, “HMYSKQRELIMEAVFKNRVHPTAEYVYKLLKKDHPELSLGTVYRNLNYWAENNMLKKINVPGGSDRFDGT”: 0.236. Next, “HMYSLGPKERSIVSFIANRPGSRSGQIAKSLQIPLPTIKRILNGLVENKVIARHGIGAGTNYVVEDQA”: 0.0323; “HMYSMSAPMPGVILEIKVAPGDQVNKGDVVMVLEAMKMKNDLHAARTGTVESIDINSGEQVKYGQVLLRFV”: 0.0869; “HMYSQIGYGSSGSDVRKLQEILNGKGYNLSVDGQFGAKTKSAVRDYQSKNGLSVDGIVGVNTWGKLT”: 0.22. Take “HMYSYNKEEVGKRIKSIRQQKGLTQESFGELFGASKGNVATWEKGISLPNASRLREIADLVSITVEELLYG”: the “soluble fraction (log2)” value came out at 0.00486. For “HMYTLGEESDGTVRLLELYDIIKNKNEKIFVVDELDRSLHPNLTFNFVKKYLSIENKSQLIVSTH”, the “soluble fraction (log2)” value is -1.11. Next, “HMYVKKSSFVKKSLNNYEFKITDNTNDLLIFYKGMLPDLFREEQGIVVEGLIDKNNNIVASKV”: -0.0152; “HMYVSGVPAITSIERVSTPGRRVYAGYTTVPKVIGGMGVSILTTSRGVMTDAEARRQKVGGELLAKV”: -0.29; “HMYVTGSAIRRLREKRKLTQAQLAAALSVSDKTVSKWETARGLPDITLLEPLARALQVSVPELLSGEEV”: -0.0388. As for “HMYVVLYPGMARDEAVQVMNELQSRGIDYYEKNGNIYVPKTDENSLRMELANLGYPKTTNNYD”, the “soluble fraction (log2)” value is -0.188.

In the case of “HMYYHQIIGLDVVDENGNTLGKIKEILSPGANDVWVVKRKQKNDLLLPVIDDVIKDVDLAAGKVHVELLEG”, the “soluble fraction (log2)” value was -1.38.
